From US20190077860A1 (EISAI R AND D MANAGEMENT, published 2019)

T1: human EphA7 extracellular region-SEAP-His protein (human, UniProt Q15375 28-555)
T1 construct: extracellular domain; also called hEphA7-SEAP-His
T1 sequence (looked up): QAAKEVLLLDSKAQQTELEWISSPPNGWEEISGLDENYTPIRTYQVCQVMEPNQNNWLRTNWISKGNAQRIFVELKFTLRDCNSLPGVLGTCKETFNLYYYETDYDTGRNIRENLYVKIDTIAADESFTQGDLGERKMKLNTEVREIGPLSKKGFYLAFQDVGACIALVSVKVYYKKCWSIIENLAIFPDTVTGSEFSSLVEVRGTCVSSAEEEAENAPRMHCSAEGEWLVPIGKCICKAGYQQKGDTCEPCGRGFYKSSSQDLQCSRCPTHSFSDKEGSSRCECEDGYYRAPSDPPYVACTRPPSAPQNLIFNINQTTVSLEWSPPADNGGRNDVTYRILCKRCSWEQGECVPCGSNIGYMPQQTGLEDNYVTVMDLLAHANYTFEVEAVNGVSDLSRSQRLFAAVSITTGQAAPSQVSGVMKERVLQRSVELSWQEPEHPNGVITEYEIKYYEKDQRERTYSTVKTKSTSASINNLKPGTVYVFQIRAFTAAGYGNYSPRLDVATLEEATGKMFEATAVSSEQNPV

T2: human EphB6 extracellular region-SEAP-His protein (human, UniProt O15197 32-594)
T2 construct: extracellular domain; also called hEphB6-SEAP-His
T2 sequence (looked up): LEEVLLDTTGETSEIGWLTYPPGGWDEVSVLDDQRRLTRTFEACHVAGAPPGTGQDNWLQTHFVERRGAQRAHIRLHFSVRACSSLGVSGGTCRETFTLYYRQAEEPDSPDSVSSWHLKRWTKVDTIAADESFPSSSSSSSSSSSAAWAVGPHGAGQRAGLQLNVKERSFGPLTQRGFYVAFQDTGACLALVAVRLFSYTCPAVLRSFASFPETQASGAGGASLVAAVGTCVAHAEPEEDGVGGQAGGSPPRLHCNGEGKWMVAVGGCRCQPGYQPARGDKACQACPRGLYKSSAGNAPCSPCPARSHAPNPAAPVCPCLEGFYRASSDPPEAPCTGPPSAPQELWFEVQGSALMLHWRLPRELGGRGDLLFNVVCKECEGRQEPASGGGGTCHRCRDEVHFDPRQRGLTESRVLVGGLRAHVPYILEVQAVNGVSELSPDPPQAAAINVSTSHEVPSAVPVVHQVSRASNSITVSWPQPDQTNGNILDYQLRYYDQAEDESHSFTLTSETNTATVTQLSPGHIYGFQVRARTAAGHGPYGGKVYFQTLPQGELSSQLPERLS

T3: human EphB4 extracellular region-SEAP-His protein (human, UniProt P54760 16-539)
T3 construct: extracellular domain; also called hEphB4-SEAP-His
T3 sequence (looked up): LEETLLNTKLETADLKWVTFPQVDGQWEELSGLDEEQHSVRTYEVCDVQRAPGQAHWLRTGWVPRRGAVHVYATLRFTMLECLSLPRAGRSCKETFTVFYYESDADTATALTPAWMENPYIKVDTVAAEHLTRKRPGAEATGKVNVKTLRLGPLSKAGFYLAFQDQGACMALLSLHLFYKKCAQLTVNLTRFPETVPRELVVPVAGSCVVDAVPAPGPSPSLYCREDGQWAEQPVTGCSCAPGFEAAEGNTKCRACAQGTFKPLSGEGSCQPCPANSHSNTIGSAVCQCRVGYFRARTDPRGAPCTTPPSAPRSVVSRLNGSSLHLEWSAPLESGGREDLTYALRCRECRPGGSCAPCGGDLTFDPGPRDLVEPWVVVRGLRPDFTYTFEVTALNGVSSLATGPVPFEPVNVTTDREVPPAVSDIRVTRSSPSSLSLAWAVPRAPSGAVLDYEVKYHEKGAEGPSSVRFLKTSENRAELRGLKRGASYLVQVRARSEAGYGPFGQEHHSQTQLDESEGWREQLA

T4: human EphA8 extracellular region-SEAP-His protein (human, UniProt P29322 28-542)
T4 construct: extracellular domain; also called hEphA8-SEAP-His
T4 sequence (looked up): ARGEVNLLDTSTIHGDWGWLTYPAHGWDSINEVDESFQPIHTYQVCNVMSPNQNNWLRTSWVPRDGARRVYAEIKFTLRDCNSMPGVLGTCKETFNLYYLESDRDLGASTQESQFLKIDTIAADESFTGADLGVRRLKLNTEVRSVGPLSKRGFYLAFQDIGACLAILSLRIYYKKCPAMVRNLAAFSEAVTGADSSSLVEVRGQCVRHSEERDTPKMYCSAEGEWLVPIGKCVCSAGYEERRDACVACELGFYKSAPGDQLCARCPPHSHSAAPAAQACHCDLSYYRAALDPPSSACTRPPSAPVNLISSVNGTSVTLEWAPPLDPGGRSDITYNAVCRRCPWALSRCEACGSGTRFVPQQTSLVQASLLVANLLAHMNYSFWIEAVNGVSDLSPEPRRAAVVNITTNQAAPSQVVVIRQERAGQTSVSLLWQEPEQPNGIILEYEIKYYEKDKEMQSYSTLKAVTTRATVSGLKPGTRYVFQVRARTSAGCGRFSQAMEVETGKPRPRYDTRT


Key:
Experiment in all cases: ELISA
[1] = target: T1, human EphA7 extracellular …
[2] = target: T2, human EphB6 extracellular …
[3] = target: T3, human EphB4 extracellular …
[4] = target: T5, human EphA2 extracellular region-SEAP-His protein (human, UniProt P29317 24-537)
T5 construct: extracellular domain; also called hEphA2-SEAP-His
T5 sequence (P29317 24-537): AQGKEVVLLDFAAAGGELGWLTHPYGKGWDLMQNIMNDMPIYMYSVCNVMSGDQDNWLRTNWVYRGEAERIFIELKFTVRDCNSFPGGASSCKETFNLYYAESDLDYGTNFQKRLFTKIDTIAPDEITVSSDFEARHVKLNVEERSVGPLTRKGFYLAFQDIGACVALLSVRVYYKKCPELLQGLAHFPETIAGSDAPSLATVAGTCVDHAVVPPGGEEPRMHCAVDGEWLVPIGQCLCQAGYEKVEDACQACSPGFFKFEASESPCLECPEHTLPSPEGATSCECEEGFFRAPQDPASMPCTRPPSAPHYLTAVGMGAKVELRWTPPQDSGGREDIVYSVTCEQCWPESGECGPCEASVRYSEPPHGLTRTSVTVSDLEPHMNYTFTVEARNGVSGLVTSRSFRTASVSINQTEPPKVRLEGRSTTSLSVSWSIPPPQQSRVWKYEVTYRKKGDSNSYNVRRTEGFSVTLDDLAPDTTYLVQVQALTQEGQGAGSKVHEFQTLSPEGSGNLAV

[5] = target: T4, human EphA8 extracellular …
[6] = target: T6, human EphA5 extracellular region-SEAP-His protein (human, UniProt P54756 25-573)
T6 construct: extracellular domain; also called hEphA5-SEAP-His
T6 sequence (P54756 25-573): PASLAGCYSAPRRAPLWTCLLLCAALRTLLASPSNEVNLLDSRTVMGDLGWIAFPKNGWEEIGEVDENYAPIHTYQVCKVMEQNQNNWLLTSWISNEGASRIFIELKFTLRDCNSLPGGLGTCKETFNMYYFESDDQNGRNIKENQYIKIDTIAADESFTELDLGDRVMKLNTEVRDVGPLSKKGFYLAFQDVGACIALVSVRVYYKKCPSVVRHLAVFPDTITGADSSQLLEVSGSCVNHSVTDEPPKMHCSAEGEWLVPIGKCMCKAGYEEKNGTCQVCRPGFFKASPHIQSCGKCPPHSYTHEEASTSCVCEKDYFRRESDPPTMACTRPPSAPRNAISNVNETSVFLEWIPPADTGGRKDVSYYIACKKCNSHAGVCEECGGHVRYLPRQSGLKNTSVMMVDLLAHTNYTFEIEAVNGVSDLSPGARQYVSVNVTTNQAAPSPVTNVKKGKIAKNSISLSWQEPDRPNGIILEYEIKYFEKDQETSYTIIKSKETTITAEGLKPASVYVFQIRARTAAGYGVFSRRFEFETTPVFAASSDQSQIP

Binder	A450 as % of hEphA4-SEAP-His [1]	A450 as % of hEphA4-SEAP-His [2]	A450 as % of hEphA4-SEAP-His [3]	A450 as % of hEphA4-SEAP-His [4]	A450 as % of hEphA4-SEAP-His [5]	A450 as % of hEphA4-SEAP-His [6]
humanized antibody No. 92 (antibody, human IgG1, kappa, human Ig kappa; also called L1-6/HK4) heavy: QIQLVQSGSELKKPGASVKVSCKASGYTFTDYSMHWVRQAPGQGLKWMGWINTETGEPTYADDFKGRFVFSLDTSVSTAYLQISSLKAEDTAVYYCARIPLYYYGSRYWYFDVWGQGTTVTVSSASTKGPSVFPLAPSSKSTSGGTAALGCLVKDYFPEPVTVSWNSGALTSGVHTFPAVLQSSGLYSLSSVVTVPSSSLGTQTYICNVNHKPSNTKVDKRVEPKSCDKTHTCPPCPAPPAAAPSVFLFPPKPKDTLMISRTPEVTCVVVDVSHEDPEVQFNWYVDGVEVHNAKTKPREEQFNSTFRVVSVLTVVHQDWLNGKEYKCKVSNKGLPAPIEKTISKTKGQPREPQVYTLPPSREEMTKNQVSLTCLVKGFYPSDIAVEWESNGQPENNYKTTPPMLDSDGSFFLYSKLTVDKSRWQQGNVFSCSVMHEALHNHYTQKSLSLSPG light: DIQMTQSPSSLSASVGDRVTITCRASENIYRNLAWYQQKPGKAPQLLLYAATNLADGVPSRFSGSGSGTDYTLTISSLQPEDFATYYCQHFWGTPWTFGQGTKVEIKRTVAAPSVFIFPPSDEQLKSGTASVVCLLNNFYPREAKVQWKVDNALQSGNSQESVTEQDSKDSTYSLSSTLTLSKADYEKHKVYACEVTHQGLSSPVTKSFNRGEC	6.4%	6.5%	6.6%	6.9%	6.7%	6.8%
humanized antibody No. 140 (antibody, human IgG2, human Ig kappa; also called L1-4/HA2) heavy: QVQLVQSGSELKKPGASVKVSCKASGYTFTDYSMHWVRQAPGQGLKWMGWINTETGEPTYAQGFTGRFVFSLDTSVSTAYLQISSLKAEDTAVYYCARIPLYYYGSRYWYFDVWGQGTTVTVSSASTKGPSVFPLAPSSRSTSESTAALGCLVKDYFPEPVTVSWNSGALTSGVHTFPAVLQSSGLYSLSSVVTVPSSNFGTQTYTCNVDHKPSNTKVDKTVERKSCVECPPCPAPPAAAPSVFLFPPKPKDTLMISRTPEVTCVVVDVSHEDPEVQFNWYVDGVEVHNAKTKPREEQFNSTFRVVSVLTVVHQDWLNGKEYKCKVSNKGLPAPIEKTISKTKGQPREPQVYTLPPSREEMTKNQVSLTCLVKGFYPSDIAVEWESNGQPENNYKTTPPMLDSDGSFFLYSKLTVDKSRWQQGNVFSCSVMHEALHNHYTQKSLSLSPG light: DIQMTQSPSSLSASVGDRVTITCRASENIYRNLAWYQQKPGKAPKLLVYAATNLADGVPSRFSGSGSGTDYTLTISSLQPEDFATYYCQHFWGTPWTFGQGTKVEIKRTVAAPSVFIFPPSDEQLKSGTASVVCLLNNFYPREAKVQWKVDNALQSGNSQESVTEQDSKDSTYSLSSTLTLSKADYEKHKVYACEVTHQGLSSPVTKSFNRGEC	5.2%	5.2%	5.4%	5.3%	5.4%	5.4%

Next, values leading:

A450 as % of hEphA4-SEAP-His [1]	A450 as % of hEphA4-SEAP-His [2]	A450 as % of hEphA4-SEAP-His [3]	A450 as % of hEphA4-SEAP-His [4]	A450 as % of hEphA4-SEAP-His [5]	A450 as % of hEphA4-SEAP-His [6]	Binder
5.5%	5.9%	5.7%	5.9%	6%	5.7%	humanized antibody No. 139 (antibody, human IgG2, human Ig kappa; also called L1-4/HA1) heavy: QVQLVQSGSELKKPGASVKVSCKASGYTFTDYSMHWVRQAPGQGLEWMGWINTETGEPTYAQGFTGRFVFSLDTSVSTAYLQISSLKAEDTAVYYCARIPLYYYGSRYWYFDVWGQGTTVTVSSASTKGPSVFPLAPSSRSTSESTAALGCLVKDYFPEPVTVSWNSGALTSGVHTFPAVLQSSGLYSLSSVVTVPSSNFGTQTYTCNVDHKPSNTKVDKTVERKSCVECPPCPAPPAAAPSVFLFPPKPKDTLMISRTPEVTCVVVDVSHEDPEVQFNWYVDGVEVHNAKTKPREEQFNSTFRVVSVLTVVHQDWLNGKEYKCKVSNKGLPAPIEKTISKTKGQPREPQVYTLPPSREEMTKNQVSLTCLVKGFYPSDIAVEWESNGQPENNYKTTPPMLDSDGSFFLYSKLTVDKSRWQQGNVFSCSVMHEALHNHYTQKSLSLSPG light: DIQMTQSPSSLSASVGDRVTITCRASENIYRNLAWYQQKPGKAPKLLVYAATNLADGVPSRFSGSGSGTDYTLTISSLQPEDFATYYCQHFWGTPWTFGQGTKVEIKRTVAAPSVFIFPPSDEQLKSGTASVVCLLNNFYPREAKVQWKVDNALQSGNSQESVTEQDSKDSTYSLSSTLTLSKADYEKHKVYACEVTHQGLSSPVTKSFNRGEC
4.9%	5%	5.2%	5%	5.4%	5.1%	humanized antibody No. 138 (antibody, human IgG2, human Ig kappa; also called L1-4/HA4) heavy: QIQLVQSGSELKKPGASVKVSCKASGYTFTDYSMHWVRQAPGQGLKWMGWINTETGEPTYAQGFTGRFVFSLDTSVSTAYLQISSLKAEDTAVYYCARIPLYYYGSRYWYFDVWGQGTTVTVSSASTKGPSVFPLAPSSRSTSESTAALGCLVKDYFPEPVTVSWNSGALTSGVHTFPAVLQSSGLYSLSSVVTVPSSNFGTQTYTCNVDHKPSNTKVDKTVERKSCVECPPCPAPPAAAPSVFLFPPKPKDTLMISRTPEVTCVVVDVSHEDPEVQFNWYVDGVEVHNAKTKPREEQFNSTFRVVSVLTVVHQDWLNGKEYKCKVSNKGLPAPIEKTISKTKGQPREPQVYTLPPSREEMTKNQVSLTCLVKGFYPSDIAVEWESNGQPENNYKTTPPMLDSDGSFFLYSKLTVDKSRWQQGNVFSCSVMHEALHNHYTQKSLSLSPG light: DIQMTQSPSSLSASVGDRVTITCRASENIYRNLAWYQQKPGKAPKLLVYAATNLADGVPSRFSGSGSGTDYTLTISSLQPEDFATYYCQHFWGTPWTFGQGTKVEIKRTVAAPSVFIFPPSDEQLKSGTASVVCLLNNFYPREAKVQWKVDNALQSGNSQESVTEQDSKDSTYSLSSTLTLSKADYEKHKVYACEVTHQGLSSPVTKSFNRGEC
